From PMC4863159
“And” between values parts separate entries of the source, which are not always exact repeats. Equal values may be shown once.

How the values were obtained:
[1] = target: C-CRD-RHCC-C-CRD fusion protein (not stated | Staphylothermus marinus); test: cross-linking; disulfide-linked oligomers of purified, oxidized CRD-RHCC fusion proteins in non-reducing SDS-PAGE; samples heat-denatured; control: reduced and treated with 60 mM iodoacetamide (IAA)
[2] = target: C-CRD-RHCC-C-CRD fusion protein (not stated | Staphylothermus marinus); test: cross-linking; spontaneous disulfide cross-linking of CRD-RHCC fusion proteins over time; loss of the dimer band into polymers on anti-His Western blot, samples every 30 minutes for 4 hours, single exponential decay fit (y = e^-x/tau)
[3] = target: right-handed coiled-coil domain (RHCC) from Staphylothermus marinus, lacking CRDs (Staphylothermus marinus); test: SDS-PAGE at low SDS concentration; purified RHCC on SDS-PAGE with a low SDS concentration to preserve the tetrameric coiled-coil; monomer lane beside it
[4] = target: N-CRD-RHCC-N-CRD fusion protein (not stated | Staphylothermus marinus); test: cross-linking; disulfide-linked oligomers of purified, oxidized CRD-RHCC fusion proteins in non-reducing SDS-PAGE; samples heat-denatured; control: reduced and treated with 60 mM iodoacetamide (IAA)
[5] = target: N-CRD-RHCC-N-CRD fusion protein (not stated | Staphylothermus marinus); test: cross-linking; spontaneous disulfide cross-linking of CRD-RHCC fusion proteins over time; loss of the dimer band into polymers on anti-His Western blot, samples every 30 minutes for 4 hours, single exponential decay fit (y = e^-x/tau)
[6] = target: C9A/C18A C-CRD mutant (CRD-RHCC fusion protein); test: western blot densitometry of the dimer band over time (spontaneous disulfide cross-linking); conditions: no reducing agent added, read off a plot

C-CRD-RHCC-C-CRD fusion protein
stoichiometry N [1]: 3 and 2 | τ (decay of the dimer band into polymers) [2]: 88 min

right-handed coiled-coil domain (RHCC) from Staphylothermus marinus, lacking CRDs (domain or fragment)
stoichiometry N [3]: 4

N-CRD-RHCC-N-CRD fusion protein
stoichiometry N [4]: 2 | τ (decay of the dimer band into polymers) [2]: 251 min | τ (decay of the dimer band into polymers) [5]: 340 min

C-CRD-RHCC-C-CRD fusion protein C9A; C18A
other: dimer loss (normalized) ([6]; t = 30 min, parent: est. 0.82): 1 | other: dimer loss (normalized) ([6]; t = 60 min, parent: est. 0.38): 0.91 | other: dimer loss (normalized) ([6]; t = 90 min, parent: est. 0.29): 0.92 | other: dimer loss (normalized) ([6]; t = 120 min, parent: est. 0.23): 0.98 | other: dimer loss (normalized) ([6]; t = 180 min, parent: est. 0.23): 1 | other: dimer loss (normalized) ([6]; t = 240 min, parent: est. 0.22): 1
